The Kd is the constant that tells how readily two partners part at equilibrium. High values mean lower affinity, low ones higher affinity.

Drawing on patent CN113117073A, this text covers 腹水效价 (ascites titre) (titre (1:x dilution)) and Kd for one molecule.

The target of assay [1] is PD-L1 (antigen of the indirect ELISA for titre; not specified). Put plainly: indirect ELISA, ascites antibody.
In assay [2] the target is 人PD-L1-His (human) (UniProt Q9NZQ7). Put plainly: SPR; PD-L1-His captured by anti-His antibody on a CM5 chip, antibody as analyte 0-1000 nmol/L, 1:1 binding fit.

Sequence of PD-L1 (antigen of the indirect ELISA for titre; not specified) (Q9NZQ7 whole entry): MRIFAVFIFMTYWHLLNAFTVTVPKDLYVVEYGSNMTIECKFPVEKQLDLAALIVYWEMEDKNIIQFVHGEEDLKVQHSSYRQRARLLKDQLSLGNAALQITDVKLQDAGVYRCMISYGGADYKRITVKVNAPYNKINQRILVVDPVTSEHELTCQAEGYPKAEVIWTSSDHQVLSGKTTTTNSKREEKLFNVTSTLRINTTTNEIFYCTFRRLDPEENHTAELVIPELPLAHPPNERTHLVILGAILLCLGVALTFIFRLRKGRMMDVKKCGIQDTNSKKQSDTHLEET

B1: PD-L1单克隆抗体 1A7 (antibody, part only; not given: light chain variable domain, V domains shown, part only)
VH: EVKLVESGGGLVKPGGSLKLSCAASGFTFSQTTMAWVRQIPEKRLEWVASIEEGGSCCFPDSALSRFTISRDNARNICYLQMNSLRSDDTAMYYCARAREACAGYFARWGQGTTLTVSS
As to B1, the 腹水效价 (ascites titre) (titre (1:x dilution)) in assay [1] is 2.56e+06. The Kd in assay [2] came to 4.19 nM.
